Source: publication PMC2596764 (Nature immunology, 2008)
Non-standard residues stand in square brackets, D forms with d. Residues, ends and D or L forms follow the SMILES beside them. No end group written: not given here. pS = N[C@@H](COP(=O)(O)O)C(=O)O

Target: HLA-A2 (Homo sapiens, UniProt P04439, D140Y/D185E/D98H/E176V/E277Q/G131W/G231S/I119V/I121R/I166T/I218V/L300P/L318F/N151K/N90K/P208A/P217A/Q86G/Q94H/R138H/R169H/T345S)
Assay: Competitive peptide binding assay to purified HLA-A2

| IC50 [nM] | Molecule |
| --- | --- |
| 62.4 | CC[C@H](C)[C@H](NC(=O)[C@H](CC(C)C)NC(=O)[C@@H](N)CCCCN)C(=O)N[C@@H](CC(=O)O)C(=O)N[C@@H](CCCNC(=N)N)C(=O)N[C@H](C(=O)N[C@@H](CCC(=O)O)C(=O)N[C@@H](COP(=O)(O)O)C(=O)N[C@@H](CC(C)C)C(=O)O)[C@@H](C)O [KLIDRTEpSL] (H-KLIDRTE[pS]L-OH) |
| 11.2 | CC[C@H](C)[C@H](NC(=O)[C@H](COP(=O)(O)O)NC(=O)[C@H](C)NC(=O)[C@H](CCC(N)=O)NC(=O)[C@@H](N)CCCNC(=N)N)C(=O)N[C@@H](CCC(=O)O)C(=O)N[C@@H](CC(C)C)C(=O)N1CCC[C@H]1C(=O)N[C@@H](CO)C(=O)N[C@@H](CCSC)C(=O)O [RQApSIELPSM] (H-RQA[pS]IELPSM-OH) |
| 178 | CC(C)[C@H](NC(=O)CNC(=O)[C@H](CO)NC(=O)[C@@H](NC(=O)[C@@H]1CCCN1C(=O)[C@H](COP(=O)(O)O)NC(=O)[C@H](C)NC(=O)[C@@H](NC(=O)[C@@H](N)CCCNC(=N)N)C(C)C)[C@@H](C)O)C(=O)O [RVApSPTSGV] (H-RVA[pS]PTSGV-OH) |
| 117 | CSCC[C@H](NC(=O)[C@@H]1CCCN1C(=O)CNC(=O)[C@H](COP(=O)(O)O)NC(=O)[C@H](Cc1ccc(O)cc1)NC(=O)[C@@H](NC(=O)[C@@H](N)CCCNC(=N)N)[C@@H](C)O)C(=O)N[C@@H](CC(N)=O)C(=O)N[C@@H](CCCCN)C(=O)N[C@H](C(=O)O)C(C)C [RTYpSGPMNKV] (H-RTY[pS]GPMNKV-OH) |
| 169 | CC(C)C[C@H](NC(=O)CN)C(=O)N[C@@H](CC(C)C)C(=O)NCC(=O)N[C@@H](COP(=O)(O)O)C(=O)N1CCC[C@H]1C(=O)N[C@H](C(=O)N[C@@H](CCCNC(=N)N)C(=O)N[C@@H](C)C(=O)O)C(C)C [GLLGpSPVRA] (H-GLLG[pS]PVRA-OH) |
| 146 | CC[C@H](C)[C@H](NC(=O)CNC(=O)[C@H](COP(=O)(O)O)NC(=O)[C@H](CC(=O)O)NC(=O)[C@H](CC(C)C)NC(=O)[C@@H](N)Cc1ccc(O)cc1)C(=O)N[C@@H](Cc1c[nH]cn1)C(=O)N[C@@H](CO)C(=O)NCC(=O)N[C@@H](C)C(=O)O [YLDpSGIHSGA] (H-YLD[pS]GIHSGA-OH) |
| 32.5 | CC(C)C[C@H](NC(=O)CNC(=O)[C@H](Cc1ccc(O)cc1)NC(=O)[C@@H](NC(=O)[C@@H]1CCCN1C(=O)[C@H](COP(=O)(O)O)NC(=O)[C@H](Cc1ccccc1)NC(=O)[C@@H](NC(=O)[C@@H](N)CCCNC(=N)N)[C@@H](C)O)[C@@H](C)O)C(=O)O [RTFpSPTYGL] (H-RTF[pS]PTYGL-OH) |
| 3.4 | CSCC[C@H](NC(=O)[C@H](CC(=O)O)NC(=O)[C@H](CC(C)C)NC(=O)[C@H](Cc1ccccc1)NC(=O)[C@H](COP(=O)(O)O)NC(=O)[C@H](CC(=O)O)NC(=O)[C@H](CCSC)NC(=O)[C@@H](N)CCCCN)C(=O)N[C@@H](CCC(N)=O)C(=O)N[C@@H](CC(C)C)C(=O)O [KMDpSFLDMQL] (H-KMD[pS]FLDMQL-OH) |

| Molecule | IC50 [nM] |
| --- | --- |
| CC[C@H](C)[C@H](NC(=O)[C@H](CO)NC(=O)[C@H](C)NC(=O)[C@H](CCC(N)=O)NC(=O)[C@@H](N)CCCNC(=N)N)C(=O)N[C@@H](CCC(=O)O)C(=O)N[C@@H](CC(C)C)C(=O)N1CCC[C@H]1C(=O)N[C@@H](CO)C(=O)N[C@@H](CCSC)C(=O)O (H-RQASIELPSM-OH) | 1770 |
| CC[C@H](C)[C@H](NC(=O)[C@H](COP(=O)(O)O)NC(=O)[C@H](C)NC(=O)[C@H](CCC(N)=O)NC(=O)[C@H](C)N)C(=O)N[C@@H](CCC(=O)O)C(=O)N[C@@H](CC(C)C)C(=O)N1CCC[C@H]1C(=O)N[C@@H](CO)C(=O)N[C@@H](CCSC)C(=O)O [AQApSIELPSM] | 58.7 |
| CC[C@H](C)[C@H](NC(=O)[C@H](CO)NC(=O)[C@H](C)NC(=O)[C@H](CCC(N)=O)NC(=O)[C@H](C)N)C(=O)N[C@@H](CCC(=O)O)C(=O)N[C@@H](CC(C)C)C(=O)N1CCC[C@H]1C(=O)N[C@@H](CO)C(=O)N[C@@H](CCSC)C(=O)O | 1180 |
| CC[C@H](C)[C@H](NC(=O)[C@H](CO)NC(=O)[C@H](CC(C)C)NC(=O)[C@H](COP(=O)(O)O)NC(=O)[C@H](C)NC(=O)[C@H](CCC(N)=O)NC(=O)[C@@H](N)CCCNC(=N)N)C(=O)N[C@@H](CO)C(=O)N[C@H](C(=O)O)C(C)C [RQApSLSISV] (H-RQA[pS]LSISV-OH) | 38.5 |
| CC[C@H](C)[C@H](NC(=O)[C@H](CO)NC(=O)[C@H](C)NC(=O)[C@H](CC(C)C)NC(=O)[C@@H](N)CCCNC(=N)N)C(=O)N[C@@H](CCC(=O)O)C(=O)N[C@@H](CC(C)C)C(=O)N1CCC[C@H]1C(=O)N[C@@H](CO)C(=O)N[C@H](C(=O)O)C(C)C (H-RLASIELPSV-OH) | 0.9 |

Target: HLA-A2-R65A (Ala substitution for Arg65) (Homo sapiens, UniProt P04439, D140Y/D185E/D98H/E176V/E277Q/G131W/G231S/I119V/I121R/I166T/I218V/N151K/N90K/P208A/P217A/Q86G/Q94H/R138H/R169H)
Assay: Competitive peptide binding assay to mutant HLA-A2-R65A

| Molecule | IC50 [nM] |
| --- | --- |
| CC[C@H](C)[C@H](NC(=O)[C@H](COP(=O)(O)O)NC(=O)[C@H](C)NC(=O)[C@H](CCC(N)=O)NC(=O)[C@@H](N)CCCNC(=N)N)C(=O)N[C@@H](CCC(=O)O)C(=O)N[C@@H](CC(C)C)C(=O)N1CCC[C@H]1C(=O)N[C@@H](CO)C(=O)N[C@@H](CCSC)C(=O)O [RQApSIELPSM] (H-RQA[pS]IELPSM-OH) | 20 |
| CC[C@H](C)[C@H](NC(=O)[C@H](CO)NC(=O)[C@H](C)NC(=O)[C@H](CCC(N)=O)NC(=O)[C@@H](N)CCCNC(=N)N)C(=O)N[C@@H](CCC(=O)O)C(=O)N[C@@H](CC(C)C)C(=O)N1CCC[C@H]1C(=O)N[C@@H](CO)C(=O)N[C@@H](CCSC)C(=O)O (H-RQASIELPSM-OH) | 2140 |
| CC[C@H](C)[C@H](NC(=O)[C@H](COP(=O)(O)O)NC(=O)[C@H](C)NC(=O)[C@H](CCC(N)=O)NC(=O)[C@H](C)N)C(=O)N[C@@H](CCC(=O)O)C(=O)N[C@@H](CC(C)C)C(=O)N1CCC[C@H]1C(=O)N[C@@H](CO)C(=O)N[C@@H](CCSC)C(=O)O [AQApSIELPSM] | 972 |
| CC[C@H](C)[C@H](NC(=O)[C@H](CO)NC(=O)[C@H](C)NC(=O)[C@H](CCC(N)=O)NC(=O)[C@H](C)N)C(=O)N[C@@H](CCC(=O)O)C(=O)N[C@@H](CC(C)C)C(=O)N1CCC[C@H]1C(=O)N[C@@H](CO)C(=O)N[C@@H](CCSC)C(=O)O | 1060 |

Target: HLA-A2-R65A heavy chain refolded with β2-microglobulin
Assay: radioligand binding

| IC50 [nM] | Molecule |
| --- | --- |
| 972 | AQApSIELPSM (peptide) |

Target: HLA-A*0201 (HLA-A2) heavy chain refolded with β2-microglobulin
Assay: radioligand binding

| IC50 [nM] | Molecule |
| --- | --- |
| 58.7 | AQApSIELPSM (peptide) |

Target: HLA-A2-R65A heavy chain refolded with β2-microglobulin
Assay: radioligand binding
Remark: another data set of the same source

| IC50 [nM] | Molecule |
| --- | --- |
| 20 | RQA[pS]IELPSM [RQApSIELPSM] |

Target: HLA-A*0201 (HLA-A2) heavy chain refolded with β2-microglobulin
Assay: radioligand binding
Remark: another data set of the same source

| IC50 [nM] | Molecule |
| --- | --- |
| 32.5 | RTF[pS]PTYGL [RTFpSPTYGL] |
| 38.5 | RQA[pS]LSISV [RQApSLSISV] |
| 146 | YLD[pS]GIHSGA [YLDpSGIHSGA] |
| 169 | GLLG[pS]PVRA [GLLGpSPVRA] |
| 178 | RVA[pS]PTSGV [RVApSPTSGV] |
| 408 | RTFSPTYGL (not fully specified) [… (non-phosphorylated counterpart of RTFpSPTYGL)] |
| 83.5 | YLDSGIHSGA (not fully specified) [… (non-phosphorylated counterpart of YLDpSGIHSGA)] |
| 11.2 | RQA[pS]IELPSM [RQApSIELPSM] |
| 793 | RTYSGPMNKV (not fully specified) [… (non-phosphorylated counterpart of RTYpSGPMNKV)] |
| 11.4 | KMDSFLDMQL (not fully specified) [… (non-phosphorylated counterpart of KMDpSFLDMQL)] |
| 117 | RTY[pS]GPMNKV [RTYpSGPMNKV] |
| 219 | GLLGSPVRA (not fully specified) [… (non-phosphorylated counterpart of GLLGpSPVRA)] |
| 62.4 | KLIDRTE[pS]L [KLIDRTEpSL] |
| 102 | KLIDRTESL (not fully specified) [… (non-phosphorylated counterpart of KLIDRTEpSL)] |
| 3.4 | KMD[pS]FLDMQL [KMDpSFLDMQL] |
| 731 | RVASPTSGV (not fully specified) [… (non-phosphorylated counterpart of RVApSPTSGV)] |
| 284 | RQASLSISV (not fully specified) [… (non-phosphorylated counterpart of RQApSLSISV)] |
